# In patent publication US20080312141 (published 2008):
# No end group written: not given here.
# T1: cathepsin G (human, UniProt P08311)
# T1 chain: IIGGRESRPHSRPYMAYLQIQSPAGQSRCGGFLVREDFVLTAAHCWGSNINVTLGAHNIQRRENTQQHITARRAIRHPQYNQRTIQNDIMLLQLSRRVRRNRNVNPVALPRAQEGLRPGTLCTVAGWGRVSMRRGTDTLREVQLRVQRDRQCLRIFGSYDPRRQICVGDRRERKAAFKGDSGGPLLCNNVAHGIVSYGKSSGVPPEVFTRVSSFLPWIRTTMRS
# B1: GST-D-1 (peptide)
# chain: CLSTCAQSCRISC
# modifications: not fully specified (bridges); cysteine pairing not given here; also: GST fusion protein
# Experiments:
# hK2 = hK2 (human, UniProt P20151); assay: other, IFMA
# hK2, sequence (P20151 25-261): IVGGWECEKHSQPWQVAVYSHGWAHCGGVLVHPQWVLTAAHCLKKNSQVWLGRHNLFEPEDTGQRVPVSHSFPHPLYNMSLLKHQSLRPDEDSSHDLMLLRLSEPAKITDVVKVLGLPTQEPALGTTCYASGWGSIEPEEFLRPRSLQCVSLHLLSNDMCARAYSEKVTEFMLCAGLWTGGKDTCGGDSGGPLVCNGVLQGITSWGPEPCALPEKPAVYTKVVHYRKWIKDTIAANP
# trypsin = assay: other, IFMA
# cathepsin G = target: T1, cathepsin G; assay: other, IFMA
# PSA [1] = target: T2, PSA (human, UniProt P07288); assay: competition, IFMA with free PSA
# T2 sequence (P07288 25-261): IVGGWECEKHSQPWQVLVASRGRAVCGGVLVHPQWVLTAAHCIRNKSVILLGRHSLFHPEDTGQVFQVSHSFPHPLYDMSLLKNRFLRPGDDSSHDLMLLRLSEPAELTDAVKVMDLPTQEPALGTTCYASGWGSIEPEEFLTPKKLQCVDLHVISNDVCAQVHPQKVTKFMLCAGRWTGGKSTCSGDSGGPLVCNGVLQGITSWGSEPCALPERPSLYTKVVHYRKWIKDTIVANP
# PSA [2] = target: T2, PSA; assay: other, IFMA
Binder,binding result (hK2),binding result (trypsin),binding result (cathepsin G),IC50 (PSA [1]) [pM],binding result (PSA [2])
CVAYCIEHHCWTC [GST-C-4],no binding,no binding,no binding,700,
B1,,,,,no binding
